Data published in PMC10256678, “Structural mechanism of intracellular autoregulation of zinc uptake in ZIP transporters” (Nature Communications, 2023).

Biological target: the molecule itself
Assay: cryo-EM structure; BbZIP in amphipol PMAL-C8 nanoparticles, purified with Cd2+, 20 mM HEPES pH 7.5, 100 mM NaCl; C2 symmetry, 3.05 Å (C1: 3.3 Å)

B1: ZIP-family zinc transporter from Bordetella bronchiseptica (BbZIP) (natural protein, UniProt A0A0H3LM39 1-309, looked up)
chain: MNQPSSLAADLRGAWHAQAQSHPLITLGLAASAAGVVLLLVAGIVNALTGENRVHVGYAVLGGAAGFAATALGALMALGLRAISARTQDAMLGFAAGMMLAASAFSLILPGLDAAGTIVGPGPAAAAVVALGLGLGVLLMLGLDYFTPHEHERTGHQGPEAARVNRVWLFVLTIILHNLPEGMAIGVSFATGDLRIGLPLTSAIAIQDVPEGLAVALALRAVGLPIGRAVLVAVASGLMEPLGALVGVGISSGFALAYPISMGLAAGAMIFVVSHEVIPETHRNGHETTATVGLMAGFALMMFLDTALG
notes: Zrt-/Irt-like protein (ZIP) zinc transporter of Bordetella bronchiseptica, full length gene synthesized and cloned into pET15b; molecular weight 31 kDa; Membrane protein; purified with Cd2+ (CdCl2) present; three Cd2+ ions per protomer and two phosphatidylethanolamine lipids at the dimer in the cryo-EM structure; also called WT BbZIP; source: E. coli C43 (DE3), purified (Ni-NTA, thrombin …)
  stoichiometry N: 2
